According to publication PMC7656253, “Recovery of motor function of chronic spinal cord injury by extracellular pyruvate kinase isoform M2 and the underlying mechanism” (Scientific Reports, 2020):

Target: T1, Recombinant human valosin-containing protein (VCP) (human, UniProt P55072 1-806)
T1 construct: valosin-containing protein (VCP), human, recombinant; Commercial protein; The supplier is printed as 'Abnoba', probably Abnova; No catalogue number or tag is printed; also called recombinant VCP; source: bought: Abnoba, Taipei, Taiwan
Experiment: co-IP; recombinant mouse PKM2 (100 pmol) and recombinant human VCP (10 pmol) coincubated 1 h at 25 °C; precipitated with rabbit anti-PKM2 antibody or normal mouse IgG cross-linked to Dynabeads Protein G, 2 h at 25 °C; Western blot for PKM2 and VCP
Settings: both partners purified

T1 sequence (P55072 whole entry): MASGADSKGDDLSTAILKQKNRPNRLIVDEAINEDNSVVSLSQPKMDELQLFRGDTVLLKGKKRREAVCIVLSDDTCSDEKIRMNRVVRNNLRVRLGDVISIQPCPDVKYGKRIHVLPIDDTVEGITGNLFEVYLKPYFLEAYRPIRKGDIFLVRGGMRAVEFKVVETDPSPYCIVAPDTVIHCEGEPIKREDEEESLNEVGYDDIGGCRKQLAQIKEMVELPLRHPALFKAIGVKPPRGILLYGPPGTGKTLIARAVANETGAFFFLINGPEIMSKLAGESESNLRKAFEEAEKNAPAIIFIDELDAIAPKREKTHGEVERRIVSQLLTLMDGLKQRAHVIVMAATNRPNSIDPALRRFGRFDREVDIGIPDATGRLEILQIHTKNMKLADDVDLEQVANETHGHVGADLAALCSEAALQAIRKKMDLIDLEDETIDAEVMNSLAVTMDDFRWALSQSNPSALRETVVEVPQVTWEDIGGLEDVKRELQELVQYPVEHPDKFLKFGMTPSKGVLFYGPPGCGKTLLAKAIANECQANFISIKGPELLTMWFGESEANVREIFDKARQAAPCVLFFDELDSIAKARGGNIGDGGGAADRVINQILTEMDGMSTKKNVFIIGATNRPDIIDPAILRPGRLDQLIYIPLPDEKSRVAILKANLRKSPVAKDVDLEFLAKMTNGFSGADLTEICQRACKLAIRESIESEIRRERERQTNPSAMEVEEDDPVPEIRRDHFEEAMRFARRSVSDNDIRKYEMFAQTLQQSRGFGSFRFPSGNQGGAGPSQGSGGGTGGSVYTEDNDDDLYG

B1: Recombinant mouse pyruvate kinase isoform M2 (PKM2) (enzyme)
chain: not shown
notes: pyruvate kinase isoform M2 (PKM2), mouse, recombinant; Commercial protein; No catalogue number, expression host or tag is printed; also called recombinant PKM2; extracellular PKM2; source: bought: Abcam
binding result: binds
